From article PMC8152469

Target: MobK-6His (Klebsiella pneumoniae (plasmid pIGRK))
Test: cross-linking; about 400 ng MobK-6His incubated with increasing glutaraldehyde (0%, 0.001%, 0.0025%, 0.005%, 0.025%, 0.05%); SDS-PAGE and Western blot with anti-6His antibody; monomer to dimer

## MobK-6His (enzyme)
  stoichiometry N: 2
